For the experiment, the target named is recombinant HCMV pUL50 (His-tagged) (human cytomegalovirus (HCMV)) (UniProt P16791). The experiment is described as follows: ELISA; competition: pUL53 (1 µg/mL) coated on Immulon plates; peptide in serial dilutions from 10 µM together with His-tagged pUL50 (0.78 µg/mL) for 2.5 h; detection with anti-His-HRP; 0.1 M phosphate buffer pH 7.2, 0.1% BSA, 0.01% Tween 20.

Regarding “NLS-CPP (acetylated; pUL53 NLS 18-27 joined to HIV-1 Tat 47-59) (peptide)”, the IC50 (as a rule, the concentration needed to halve the response being measured) is over 10 µM.

These data come from article PMC9505826, “A Peptide Inhibitor of the Human Cytomegalovirus Core Nuclear Egress Complex” (Pharmaceuticals, 2022).
